Data as given in PMC7432810.

Key:
[1] = biological target: Cx36-ECFP (Rattus norvegicus) (UniProt O70610); test: FRET or BRET; acceptor photobleaching FRET in double transfected Neuro 2a cells fixed with 4% paraformaldehyde; ECFP donor, DsRed acceptor; threshold 1.7% (10 nm); cells untreated or treated before with 2 uM ionomycin or 24 uM BAPTA-AM (10 min), 5 ug/mL BFA (6 h) or 50 uM Dynasore (1 h)
[2] = biological target: Cx36-DsRed (Rattus norvegicus) (UniProt O70610); test: as above

Substance	FRET efficiency [1]	FRET efficiency (cells treated with 2 uM ionomycin) [1]	FRET efficiency (cells treated with BFA for 6 h) [1]	FRET efficiency (no treatment, control of the Dynasore experiment) [1]	FRET efficiency [2]
Cav-1-DsRed (natural protein)	5.73	7.33	3.76	4	–
Cav-1-ECFP (natural protein)	–	–	–	–	5.94
